Data taken from the supplement of paper PMC9170038.

Test system: MS2 coat protein
Experiment: apparent KD of MS2 coat protein; designed switch direction (-1 OFF switch, 1 ON switch): 1; higher = weaker reporter binding
Summary of the method: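 Designed RNA switches were transcribed on Illumina chips by stalled E. coli RNA polymerase and titrated with SNAP-549-labelled MS2 coat protein from 0.7 or 1.5 nM, doubling to 3 µM. Step length ran from 0.8–1.5 h at the lowest concentration to 10–20 min at the highest. The apparent KD is the median over clusters for each design, from curve-fitted normalised cluster fluorescence.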

[1] = input ligand: microRNA oligo, concentration not stated
[2] = Eterna round: R95, input ligand: FMN 200 uM
[3] = Eterna round: R95, input ligand: microRNA oligo, concentration not stated
[4] = Eterna round: R95, input ligand: none

## GUAGCAUACCGAGGAUAUUCAUUACAUGAGGAUCACCCAUGUUAAUUAUAGGCCAAAAGGCCUUGGGAGAAGGCGGAAUGCUAC [Xeonanis - 20 Mod13] (Eterna round: R96, puzzle: Same State NG 2)
Input ligand: FMN 200 uM
  apparent KD of MS2 coat protein: 12.2 nM
[1]
  apparent KD of MS2 coat protein: 8.28 nM
Input ligand: none
  apparent KD of MS2 coat protein: 13.3 nM

## GUAGGACAUGAGGAUCACCCAUGUAGGAGGGAACGAGGAUAUGUGAUUAGCGAGGAGAGGACAGAAGGCGUGGUAG [JR_SS1_Sub025] (puzzle: Same State 1)
[2]
  apparent KD of MS2 coat protein: 18.7 nM
[3]
  apparent KD of MS2 coat protein: 18.3 nM
[4]
  apparent KD of MS2 coat protein: 21.3 nM

## GUAUAACAUGAGGAUCACCCAUGUCAUCUAAGUCGAGGAUAUGGGAAUUAAUUAAUUAAACCAGAAGGCGAAAAUG [Mat - Same State 1 - D93] (puzzle: Same State 1)
[2]
  apparent KD of MS2 coat protein: 48.2 nM
[3]
  apparent KD of MS2 coat protein: 291 nM
[4]
  apparent KD of MS2 coat protein: 300 nM

## GUAUCUACAGGUUUCUUUGCUCGUCUGAUACAUGAGGAUCACCCAUGUUAUAGCCCUGUGCUUGCGCAGGGCUGAGG [Sensor for hsa-mir-208a ( MOD of Tearor v.3 )] (puzzle: Sensor for hsa-mir-208a)
[2]
  apparent KD of MS2 coat protein: 34.1 nM
[3]
  apparent KD of MS2 coat protein: 36.6 nM
[4]
  apparent KD of MS2 coat protein: 37 nM

## GUGACCUCCCUAGGAUAUCGCCAAAUGUGAUGUCGACAUGAGGAUCACCCAUGUAUAGUCACGAACGAGAAGGAGGGUGUGGCA [Cesodi] (Eterna round: R96, puzzle: Same State NG 2)
Input ligand: FMN 200 uM
  apparent KD of MS2 coat protein: 15.6 nM
[1]
  apparent KD of MS2 coat protein: 17.5 nM
Input ligand: none
  apparent KD of MS2 coat protein: 19.4 nM

## GUGCAACCGUGUGAGGAUAUCGGUGAACAAACAUGAGGAUCACCCAUGUCCGAAGCUCGGUUCUCCGAGAAGGCGCACAGUUGCA [Same State 2 - Mod of Erisin v.3] (puzzle: Same State 2)
[2]
  apparent KD of MS2 coat protein: 72.6 nM
[3]
  apparent KD of MS2 coat protein: 105 nM
[4]
  apparent KD of MS2 coat protein: 224 nM

## GUGCAACCGUGUGAGGAUAUCGGUGAUCAGACAUGAGGAUCACCCAUGUCCGAAGCUCGGAUCUCCGAGAAGGCGCACAGUUGCA [Same State 2 - Mod of Erisin v.6] (puzzle: Same State 2)
[2]
  apparent KD of MS2 coat protein: 92.8 nM
[3]
  apparent KD of MS2 coat protein: 232 nM
[4]
  apparent KD of MS2 coat protein: 296 nM

## GUGCGGGUGCCACAGGAUAUACGUGGAUCGACAUGAGGAUCACCCAUGUAUAUCCUAAUAAUUGCGUAGAAGGGUGGUCAGCCGU [Enbebiqu] (Eterna round: R96, puzzle: Same State 2)
Input ligand: FMN 200 uM
  apparent KD of MS2 coat protein: 144 nM
[1]
  apparent KD of MS2 coat protein: 196 nM

## GUGCGGGUGCCACAGGAUAUACGUGGAUCGACAUGAGGAUCACCCAUGUAUAUCCUAAUAAUUGCGUAGAAGGGUGGUCAGCCGU [Enbebiqu] (puzzle: Same State 2)
[2]
  apparent KD of MS2 coat protein: 85.9 nM
[3]
  apparent KD of MS2 coat protein: 308 nM
[4]
  apparent KD of MS2 coat protein: 340 nM

## GUGCUCGUGUAAGGAUAUGCUUCCGUUUCGGCUGCAGAAGGUACUAUUAUACAUGAGGAUCACCCAUGUCUCUUUUGUUUGGUG [salish99_SSNG1_r04_909] (Eterna round: R96, puzzle: Same State NG 1)
Input ligand: FMN 200 uM
  apparent KD of MS2 coat protein: 89.1 nM
[1]
  apparent KD of MS2 coat protein: 55.5 nM
Input ligand: none
  apparent KD of MS2 coat protein: 87.9 nM

## GUGCUCGUGUGAGGAUAUGCUUCCGGUUCGGCUGCAGAAGGUACUAUUAUACAUGAGGAUCACCCAUGUCGCUUUUCUCCGGUG [salish99_SSNG1_r04_916] (Eterna round: R96, puzzle: Same State NG 1)
Input ligand: FMN 200 uM
  apparent KD of MS2 coat protein: 28.3 nM
[1]
  apparent KD of MS2 coat protein: 17.6 nM
Input ligand: none
  apparent KD of MS2 coat protein: 25 nM

## GUGCUCGUGUGAGGAUAUGCUUCCGUUUCGGCUGCAGAAGGUACUAUUAUACAUGAGGAUCACCCAUGUCGCUUUUCUCCGGUG [salish99_SSNG1_r04_915] (Eterna round: R96, puzzle: Same State NG 1)
[1]
  apparent KD of MS2 coat protein: 21.8 nM

## GUGGCCUAGGCACAGGAUAUGUUGCUCGUAACAUGAGGAUCACCCAUGUGCCUAUGAGAUUUAAUGCAGAAGGGUGCACGCCACG [Edbeso] (Eterna round: R96, puzzle: Same State 2)
Input ligand: FMN 200 uM
  apparent KD of MS2 coat protein: 14.3 nM
[1]
  apparent KD of MS2 coat protein: 123 nM
Input ligand: none
  apparent KD of MS2 coat protein: 139 nM

## GUGGUCAGACAUGAGGAUCACCCAUGUGGAAUAAAUAACACACAGGAUAUCAAAUAUAAAAUAUAUGAGAAGGGUGGAUUGGUG (Eterna round: R96, puzzle: Same State NG 3)
[1]
  apparent KD of MS2 coat protein: 300 nM

## GUGGUCAGACAUGAGGAUCACCCAUGUGGAAUAAAUAACGGACAGGAUAUUUAAUAUAGGAUAUAGAAGAAGGGUUGAUUGGUG (Eterna round: R96, puzzle: Same State NG 3)
Input ligand: FMN 200 uM
  apparent KD of MS2 coat protein: 104 nM
[1]
  apparent KD of MS2 coat protein: 77.9 nM
Input ligand: none
  apparent KD of MS2 coat protein: 90.8 nM

## GUGGUCAGACAUGAGGAUCACCCAUGUGGAAUAAAUAACGGUGAGGAUAUGGAAUAUAGGAUAUACUAGAAGGCAUGAUUGGUG (Eterna round: R96, puzzle: Same State NG 3)
Input ligand: FMN 200 uM
  apparent KD of MS2 coat protein: 91.5 nM
[1]
  apparent KD of MS2 coat protein: 76.9 nM
Input ligand: none
  apparent KD of MS2 coat protein: 92.3 nM

## GUGGUCAGACAUGAGGAUCACCCAUGUGGAAUAAAUAAGGGAGAGGAUAUUUAAUAUAGGAUAUAAAAGAAGGCUCGGUUGGUG (Eterna round: R96, puzzle: Same State NG 3)
Input ligand: FMN 200 uM
  apparent KD of MS2 coat protein: 86.3 nM
[1]
  apparent KD of MS2 coat protein: 113 nM
Input ligand: none
  apparent KD of MS2 coat protein: 115 nM

## GUUAAACAUGAGGAUCACCCAUGUAAUAUAAUGGGAGGAUAUCUGAAUUAAUUAAAUUAAGGAGAAGGCCUAUAUG [Mat - Same State 1 - Mod of Eli - D53] (puzzle: Same State 1)
[2]
  apparent KD of MS2 coat protein: 36.6 nM
[3]
  apparent KD of MS2 coat protein: 210 nM
[4]
  apparent KD of MS2 coat protein: 271 nM

## GUUAAGAACUAAGGAUAUUGAAUACAUAUGUUUAACAUGAGGAUCACCCAUGUGGGUUGCGGUGUCGAGAAGGUAGAAUAAUAG [Mat - same State NG 2 - JL mod - D98] (Eterna round: R96, puzzle: Same State NG 2)
[1]
  apparent KD of MS2 coat protein: 148 nM

## GUUACAUGAGGAUCACCCAUGUAUGUGUGGGAGUAAGUGUCUUAGGAUAUCUAAUAUUUAAAUUAAGAGAAGGAAGAUUGUUGU [JMF's solution 6] (Eterna round: R96, puzzle: Same State NG 3)
Input ligand: FMN 200 uM
  apparent KD of MS2 coat protein: 112 nM
[1]
  apparent KD of MS2 coat protein: 89.9 nM
Input ligand: none
  apparent KD of MS2 coat protein: 112 nM

## GUUACAUGAGGAUCACCCAUGUAUGUGUGGGAGUAAGUGUCUUAGGAUAUCUAGUAUUUAAUGUAAGAGAAGGAAGAUUGUUGU [JMF's solution 64] (Eterna round: R96, puzzle: Same State NG 3)
Input ligand: FMN 200 uM
  apparent KD of MS2 coat protein: 130 nM
[1]
  apparent KD of MS2 coat protein: 106 nM
Input ligand: none
  apparent KD of MS2 coat protein: 96.1 nM

## GUUACAUGAGGAUCACCCAUGUAUGUGUGGGAGUAAGUGUCUUAGGAUAUCUGUUAUUUAAAUUAAGAGAAGGAAGAUUGUUGU [JMF's solution 8] (Eterna round: R96, puzzle: Same State NG 3)
Input ligand: FMN 200 uM
  apparent KD of MS2 coat protein: 120 nM
[1]
  apparent KD of MS2 coat protein: 89.2 nM
Input ligand: none
  apparent KD of MS2 coat protein: 110 nM

## GUUACAUGAGGAUCACCCAUGUAUGUGUGGGAGUAAGUGUCUUAGGAUAUCUGUUAUUUAAUUCAAGAGAAGGAAGAUUGUUGU [JMF's solution 46] (Eterna round: R96, puzzle: Same State NG 3)
Input ligand: FMN 200 uM
  apparent KD of MS2 coat protein: 94.6 nM
[1]
  apparent KD of MS2 coat protein: 79.1 nM
Input ligand: none
  apparent KD of MS2 coat protein: 93.7 nM
